Measured values taken from patent publication US20030119733A1, “Compositions and methods for inhibiting hepatocyte invasion by malarial sporozoites” (New York University, priority 1992, published 2003).

B1: Falciparum-1: Same as Falciparum-2 minus most of Region II+ (P. falciparum residues 43-348) (protein)
chain: AGTNLYNELEMNYYGKQENWYSLKKNSRSLGENDDGNNNNGDNGREGKDEDKRDGNNEDNEKLRKPKHKKLKQPGDGNPDPNANPNVDPNANPNVDPNANPNVDPNANPNANPNANPNANPNANPNANPNANPNANPNANPNANPNANPNANPNANPNANPNANPNVDPNANPNANPNANPNANPNANPNANPNANPNANPNANPNANPNANPNANPNANPNANPNANPNANPNANPNANPNANPNKNNQGNGQGHNMPNDPNRNVDENANANNAVKNNNNEEPSDKHIEQYLKKIKNSISTEWSP
B2: Falciparum-2: fragment of P. falciparum CS protein with repeats and Region II+ (residues 43-391) (protein)
chain: AGTNLYNELEMNYYGKQENWYSLKKNSRSLGENDDGNNNNGDNGREGKDEDKRDGNNEDNEKLRKPKHKKLKQPGDGNPDPNANPNVDPNANPNVDPNANPNVDPNANPNANPNANPNANPNANPNANPNANPNANPNANPNANPNANPNANPNANPNANPNANPNVDPNANPNANPNANPNANPNANPNANPNANPNANPNANPNANPNANPNANPNANPNANPNANPNANPNANPNANPNANPNKNNQGNGQGHNMPNDPNRNVDENANANNAVKNNNNEEPSDKHIEQYLKKIKNSISTEWSPCSVTCGNGIQVRIKPGSANKPKDELDYENDIEKKICKMEKCSS

How the values were obtained:
[1] = Solid phase binding assay, cholesterol-3-sulfate; conditions: steroid dried into microtiter wells
Procedure: (§1) Solid phase binding assays: Thirty μl of lipids or steroids dissolved in methanol (20-250 μg/ml) were dried into wells of microassay plates (Cat.# 3911—Falcon—Oxnard, Calif.). The plates were then blocked with 1% BSA/PBS pH 7.4 (BSA/PBS) for 30 minutes. Wells were incubated with recombinant protein (or with parasite extract) in PBS/BSA for 1 hour, washed 3 times with BSA/PBS, incubated for 1 hour with monoclonal antibodies 2F2 or 2A10 in BSA/PBS, washed 3 times, and then incubated with (10^5 cpm/well) ^125I protein A (Amersham Corp., Arlington Hts., Ill.). In the case of the P. berghei CS protein, wells were incubated with ^125I labelled mAb 3D11. Wells were washed again and the bound radioactive protein was counted in an LKB gamma-counter (model #1260, Pharmacia, Inc., Gaithersburg, Md.). For inhibition assays, the recombinant proteins were mixed with dilutions of the various polymers in BSA/PBS, the mixture was loaded into the wells of the microtiter plates, and the binding assay performed as above. See also, Roberts, et al. J. Biol. Chem. 260:9405-9411, 1985.
(§2) 1.4 nmol of sulfatide (open squares), cholesterol-3-sulfate (closed triangles), galactocerebroside I (closed circles), galactocerebroside II (open circles) and cholesterol (open triangles) were evaporated into microtiter wells and then incubated with serial dilutions of Vivax-2. […]

[2] = Solid phase binding assay, sulfatide; conditions: lipid dried into microtiter wells
Procedure: as §1, §2

[3] = system: heparan sulfate proteoglycans (HSPG); assay: CS/proteoglycan co-immunoprecipitation; format: binding, human; conditions: for co-immunoprecipitation of 35SO4-labeled sulfated molecules: lysates of rat liver, HepG2 cells, kidney, others 64 μg/ml; for total sulfate-labeled proteoglycans precipitated: trypsin-released proteoglycan, equivalent concentrations of Region II+
Procedure: All extracts and supernatants were first precleared with normal rabbit serum and Staph A cells. Then 32 μg/ml of CSFZ(Cys) or 64 μg/ml of CS27IVC, Falc-2 or Falc-1 were added for 30 minutes, followed by 10.8 μg/ml mAb 2A10 for 30 minutes, and 1% Staph A cells (final concentrations). The suspensions were shaken for 1 to 5 hours at 4° C. The Staph A cells were washed 3 times with the lysis buffer A, 2 times with lysis buffer B (10 mM Tris-HCl, pH 7.2, containing 100 mM NaCl and 0.5% NP40), 1 time with 50 mM Tris-HCl, ph 7.2, and were processed in this buffer for electrophoresis under reducing and non-reducing conditions.
Extracts of cells metabolically labeled with ^35SO4 were incubated for 30 minutes at 4° C. with 32 μg/ml of recombinant CSFZ(Cys) or 64 μg/ml Falc-1, and were immunoprecipitated with mAb 2A10 and Staph A cells. […] Immunoprecipitation with Falc-1 was negative. The SDS-PAGE patterns of the total lysate of HepG2 cells, and of the molecules co-immunoprecipitated with CSFZ(Cys) resembled the corresponding liver SDS-PAGE patterns. In kidney lysates, CSFZ(Cys) selectively immunoprecipitated a band of slightly lower molecular weight than the total kidney sulfated molecules.
Sub-confluent HepG2 cells were incubated with various concentrations of trypsin for 5 minutes at 4° C. […] Independently of the trypsin concentration, about 80% of the released HSPG was co-immunoprecipitated by 32 μg/ml CSFZ(Cys) and 10.8 μg/ml mAb 2A10. Under the same conditions, Falc-1 was negative.
^35SO4-labeled trypsin-released proteoglycan (total supernatant) was precipitated by CSFZ(Cys) (32 μg/ml), Falc-2 (64 μg/ml), CS27IVC (64 μg/ml) and Falc-1 (64 μg/ml). The labeled molecules were incubated with CSFZ(Cys), CS27IVC, and Falc-2 at equivalent concentrations of Region II+, and co-immunoprecipitated with the mAb 2A10. CSFZ(Cys), lacking most of the repeat region, precipitated up to 86% of the total sulfate-labeled proteoglycans (see FIG. 14), while CS27IVC and Falc-2 precipitated only 18% and 6% of the counts, respectively. Falc-1, which lacks Region II+, was negative.
Subconfluent sulfate-labeled HepG2 cells were incubated with 20 μg/ml trypsin for 5 minutes at 4° C., and the supernatants were loaded onto an anion exchange chromatography Pharmacia mono-Q column. These were eluted with a 0 to 2 M NaCl gradient in the presence of 7 M urea. […] Protein was not detectable in the labeled peaks. One ml fractions were collected and counted.

Molecule	binding to cholesterol-3-sulfate [1]	binding to sulfatide [2]	co-immunoprecipitation of 35SO4-labeled sulfated molecules ([3]; CSFZ(Cys) 32 μg/ml, listed as Falc-1)	released HSPG co-immunoprecipitated ([3]; trypsin-released from HepG2 cells, CSFZ(Cys) 32 μg/ml, mAb 2A10 10.8 μg/ml)	total sulfate-labeled proteoglycans precipitated [3]	co-immunoprecipitation of 35SO4-labeled sulfated molecules ([3]; CSFZ(Cys) 32 μg/ml)
B1	did not bind	did not bind	Negative results	negative	negative	
B2	bind	specifically bound sulfatide			6%	less efficient
